PMC10248797

Legend:
[1] = biological target: N-terminal coiled coil of Ndel1 (1-192) with N-terminal HaloTag and C-terminal 6X-His tag (UniProt Q9GZM8); test: pull-down; depletion of 5 nM dynein from solution by Ndel1 (0-600 nM) coupled to Magne HaloTag beads; 45 min; binding buffer 30 mM Hepes pH 7.4, 2 mM magnesium acetate, 1 mM EGTA, 10% glycerol, 1 mM DTT, 1 mg/ml casein, 0.1% NP-40, 1 mM ADP, 36 mM KCl; SDS-PAGE densitometry of the supernatant; one-site fit with Bmax set to 1
[2] = biological target: Full-length Ndel1 with N-terminal HaloTag and C-terminal 6X-His tag (UniProt Q9GZM8); test: as above
Full-length Ndel1 with N-terminal HaloTag and C-terminal 6X-His tag, sequence (Q9GZM8 whole entry): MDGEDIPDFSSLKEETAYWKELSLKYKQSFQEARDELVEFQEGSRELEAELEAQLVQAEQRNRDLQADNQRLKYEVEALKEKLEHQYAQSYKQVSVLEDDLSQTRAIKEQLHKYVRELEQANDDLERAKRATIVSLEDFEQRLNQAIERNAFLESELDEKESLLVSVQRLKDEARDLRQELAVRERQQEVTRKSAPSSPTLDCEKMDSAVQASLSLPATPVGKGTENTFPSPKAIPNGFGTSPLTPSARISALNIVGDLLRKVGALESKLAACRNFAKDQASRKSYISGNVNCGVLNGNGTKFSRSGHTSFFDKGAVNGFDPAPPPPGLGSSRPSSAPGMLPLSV

[3] = biological target: Full-length phosphomimetic Ndel1 (S198D; T219D; S231D; S242D) with N-terminal HaloTag and C-terminal 6X-His tag (UniProt Q9GZM8); test: as above
Full-length phosphomimetic Ndel1 (S198D; T219D; S231D; S242D) with N-terminal HaloTag and C-terminal 6X-His tag, sequence (Q9GZM8 whole entry S198D/T219D/S231D/S242D): as the sequence (Q9GZM8 whole entry) above, with S198D, T219D, S231D, S242D counted along it

[4] = biological target: Ndel1 with the C-terminal coiled coil (256-291) deleted, N-terminal HaloTag and C-terminal 6X-His tag (UniProt Q9GZM8); test: as above
Ndel1 with the C-terminal coiled coil (256-291) deleted, N-terminal HaloTag and C-terminal 6X-His tag, sequence (Q9GZM8 other isoform, or with tags, fused parts or gaps): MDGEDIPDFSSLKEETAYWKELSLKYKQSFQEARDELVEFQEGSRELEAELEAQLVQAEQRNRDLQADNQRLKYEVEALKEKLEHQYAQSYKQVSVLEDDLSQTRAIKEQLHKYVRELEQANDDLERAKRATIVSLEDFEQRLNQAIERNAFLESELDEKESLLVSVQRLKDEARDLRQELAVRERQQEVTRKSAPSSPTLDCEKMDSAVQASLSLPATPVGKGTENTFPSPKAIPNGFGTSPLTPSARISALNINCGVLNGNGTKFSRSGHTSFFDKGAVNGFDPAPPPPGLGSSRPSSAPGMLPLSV

[5] = biological target: Lis1 with N-terminal HaloTag (UniProt P43034); test: pull-down; depletion of dynein from solution by Lis1 (0-600 nM) coupled to magnetic beads via its N-terminal HaloTag; SDS-PAGE densitometry of the supernatant; one-site fit with Bmax set to 1
Lis1 with N-terminal HaloTag, sequence (P43034 whole entry): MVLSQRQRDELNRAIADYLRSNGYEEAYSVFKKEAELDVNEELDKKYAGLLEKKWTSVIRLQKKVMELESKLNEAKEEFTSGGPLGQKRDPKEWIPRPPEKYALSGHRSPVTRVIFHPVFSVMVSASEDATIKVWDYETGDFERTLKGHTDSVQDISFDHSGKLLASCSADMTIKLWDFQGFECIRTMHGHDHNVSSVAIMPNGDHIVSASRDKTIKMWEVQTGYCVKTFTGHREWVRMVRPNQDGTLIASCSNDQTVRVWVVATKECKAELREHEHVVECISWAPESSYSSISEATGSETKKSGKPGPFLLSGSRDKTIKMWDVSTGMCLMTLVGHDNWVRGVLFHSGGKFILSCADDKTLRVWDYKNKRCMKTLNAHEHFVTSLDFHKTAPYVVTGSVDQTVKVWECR

N-terminal coiled coil of Ndel1 (1-192) with N-terminal HaloTag and C-terminal 6X-His tag, sequence (Q9GZM8 1-192): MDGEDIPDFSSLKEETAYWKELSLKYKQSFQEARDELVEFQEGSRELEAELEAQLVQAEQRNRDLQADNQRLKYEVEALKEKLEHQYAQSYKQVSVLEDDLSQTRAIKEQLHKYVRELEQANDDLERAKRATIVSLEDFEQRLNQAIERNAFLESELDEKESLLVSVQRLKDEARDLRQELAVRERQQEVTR

- Kd [1]: 0.0793 µM
- Kd [2]: 0.0328 µM
- Kd [3]: 0.0158 µM
- Kd [4]: 0.0551 µM
- Kd [5]: 0.101 µM
Substance: SNAP-tagged, recombinant full-length human cytoplasmic dynein-1 with all associated accessory chains (from UniProt Q14204 1-4646; O43237 1-492; P63172 1-113; Q9NP97 1-96; P63167 1-89) (complex)
